Assay in all cases: SPR
On the technique in general: In SPR one partner is held on a chip, and binding of the other changes the refractive index at the surface.

For assay [1], the target named is gp140UG37 (subtype A), gp140 envelope glycoprotein from the HIV-1 group M A-clade isolate 92UG037 (HIV-1).
Assay [2] addresses CA018 gp140/420 (A/G) (HIV-1).
The target of assay [3] is gp140CN54 (subtype B'/C), gp140 envelope glycoprotein from the HIV-1 group M CRF07-B/C-clade isolate 97CN54 (HIV-1).
In assay [4] the target is gp120IIIB (subgroup B) (HIV-1) (UniProt P04578).

Kd, koff and kon data for six substances are collected here from patent publication US20150158934A1.

For mAb 2F5 (antibody), in assay [1], the Kd stood at 58.5 nM, the koff worked out at 0.422 s⁻¹ and the kon came to 80900 M⁻¹ s⁻¹.
Consider mAb 2G12 (antibody), for which, in assay [2], the Kd worked out at 537 nM, the koff turned out to be 0.342 s⁻¹ and the kon came to 500000 M⁻¹ s⁻¹. In assay [1], the Kd was determined as 393 nM, the koff is 0.349 s⁻¹ and the kon was found to be 695000 M⁻¹ s⁻¹.
In the case of mAb 17b (antibody), in assay [2], the Kd is 1.07 nM, the koff stood at 0.000637 s⁻¹ and the kon is 593000 M⁻¹ s⁻¹. For the same substance, in assay [1], the Kd was determined as 2.64 nM, the koff stood at 0.000135 s⁻¹ and the kon came out at 51000 M⁻¹ s⁻¹. In assay [3], this substance yielded a Kd of 6.15 nM, a koff of 0.000171 s⁻¹ and an on-rate constant (kon) of 27700 M⁻¹ s⁻¹.
In assay [2], mAb HJ16 (antibody) registered a Kd of 1030 nM, a koff of 0.0382 s⁻¹ and a kon of 37200 M⁻¹ s⁻¹. In assay [4], this substance registered a Kd of 3.03 nM, a koff of 0.000156 s⁻¹ and a kon of 51500 M⁻¹ s⁻¹. In assay [1], this substance had a Kd of 88.5 nM, a koff of 0.341 s⁻¹ and a kon of 424000 M⁻¹ s⁻¹.
As for mAb b12 (antibody), the Kd in assay [2] is 18.8 nM; in assay [1], 233 nM; in assay [3], 167 nM. For the same substance, the koff in assay [2] is 0.0271 s⁻¹; in assay [1] it was 0.301 s⁻¹; in assay [3] it was 0.00228 s⁻¹. For the same substance, the kon in assay [2] came to 1.43e+06 M⁻¹ s⁻¹; in assay [1], 1.29e+06 M⁻¹ s⁻¹; in assay [3], 13600 M⁻¹ s⁻¹.
As to “sCD4 (2-D) (from UniProt P01730 26-208) (receptor)”, in assay [4], the Kd was determined as 0.942 nM, the koff amounted to 6e-05 s⁻¹ and the kon is 63700 M⁻¹ s⁻¹. In assay [1], this substance gave a Kd of 39.8 nM, a koff of 0.000249 s⁻¹ and a kon of 6250 M⁻¹ s⁻¹.

Broadly, the Kd is the free concentration of one partner at which half of the binding sites on the other are occupied at equilibrium, for simple one-to-one binding. A lower Kd goes with a tighter complex. The term koff denotes the rate constant with which the complex falls apart. High values mean a short-lived complex, low ones a long-lived complex. The term kon denotes the rate constant with which the complex forms. Low values mean slower complex formation, high ones faster complex formation.
